Reference: PMC3712923, “Structure-Guided Design of an Engineered Streptavidin with Reusability to Purify Streptavidin-Binding Peptide Tagged Proteins or Biotinylated Proteins” (PLoS ONE, 2013)

Experiments:
Experiment in all cases: SPR; BIAcoreX; synthetic SBP peptide thiol-coupled by its N-terminal cysteine to a CM5 chip, streptavidin variant as analyte; blank flow cell as reference
Details in all cases: both partners purified
[1] = biological target: T1, SAVSBPM18 engineered streptavidin (S27A, G48T) (UniProt P22629 25-183, S27A | G48T)
T1 construct: streptavidin with the double mutation S27A, G48T; Secreted by means of the B. subtilis levansucrase (SacB) signal peptide; also called streptavidin SAVSBPM18; source: B. subtilis WB800[pSAVSBPM18], secreted, purified (biotin-agarose)

[2] = biological target: T2, wild-type streptavidin (UniProt P22629 25-183)
T2 construct: wild-type streptavidin, commercial; also called wt SAV; wt streptavidin; source: bought: Sigma Canada

[3] = biological target: T3, SAVSBPM12 streptavidin mutein (G48T) (UniProt P22629 25-183, G48T)
T3 construct: streptavidin with the mutation G48T; Secreted by means of the SacB signal peptide; Its oligomeric state was not measured; also called G48T streptavidin mutein; source: B. subtilis WB800[pSAVSBPM12], secreted, purified (biotin-agarose), denatured and renatured, then iminobiotin-agarose
T3 sequence (P22629 25-183 G72T): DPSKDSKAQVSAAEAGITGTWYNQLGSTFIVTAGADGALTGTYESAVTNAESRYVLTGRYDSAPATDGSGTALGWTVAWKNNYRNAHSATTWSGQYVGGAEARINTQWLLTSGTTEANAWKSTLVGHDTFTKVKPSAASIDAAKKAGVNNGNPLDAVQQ

T2 sequence (P22629 25-183): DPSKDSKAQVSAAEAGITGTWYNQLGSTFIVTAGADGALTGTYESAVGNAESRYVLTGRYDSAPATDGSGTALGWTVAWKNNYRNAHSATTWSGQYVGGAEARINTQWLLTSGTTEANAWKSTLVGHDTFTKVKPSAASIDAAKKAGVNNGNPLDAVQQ
T1 sequence (P22629 25-183 S51A/G72T): as the sequence (P22629 25-183 G72T) above, with S27A counted along it

B1: synthetic 59-amino acid peptide with the full length SBP tag (peptide)
peptide: CGGGGSTSGGSTSGGSTSGGGMDEKTTGWRGGHVVEGLAGELEQLRARLEHHPQGQREP
notes: N-terminal cysteine for thiol coupling to the CM5 chip, then the 20-amino-acid glycine-rich linker; the limits are worked out as 1 Cys + 20 linker + 38 SBP = 59; also called SBP tag (peptide); synthetic SBP tag; source: synthetic peptide (Peptide 2.0 Inc.)
B1 was tested, and the Kd [1] was 7.67 nM, the koff [1] was 0.000821 s⁻¹ and the kon [1] was 107000 M⁻¹ s⁻¹. It also gave a Kd [2] of 1.65 nM, a koff [2] of 0.000496 s⁻¹ and a kon [2] of 300000 M⁻¹ s⁻¹. The Kd [3] was 1.99 nM, the koff [3] was 0.00056 s⁻¹ and the kon [3] was 281000 M⁻¹ s⁻¹.
